A short description of the data set: Radiometric (−)-cocaine hydrolysis assay. It counts as biochemical. As to conditions: 25° C.

Here are results for one molecule from patent US20200069778A1, “PLANT-EXPRESSED COCAINE HYDROLASE VARIANTS OF BUTYRYLCHOL[…] METHODS OF REDUCING COCAINE-PRIMED REINSTATEMENT” (priority 2018, published 2020).

B1: WT pBChE (protein, UniProt P06276 29-602, looked up)
Cholinesterase: EDDIIIATKNGKVRGMNLTVFGGTVTAFLGIPYAQPPLGRLRFKKPQSLTKWSDIWNATKYANSCCQNIDQSFPGFHGSEMWNPNTDLSEDCLYLNVWIPAPKPKNATVLIWIYGGGFQTGTSSLHVYDGKFLARVERVIVVSMNYRVGALGFLALPGNPEAPGNMGLFDQQLALQWVQKNIAAFGGNPKSVTLFGESAGAASVSLHLLSPGSHSLFTRAILQSGSFNAPWAVTSLYEARNRTLNLAKLTGCSRENETEIIKCLRNKDPQEILLNEAFVVPYGTPLSVNFGPTVDGDFLTDMPDILLELGQFKKTQILVGVNKDEGTAFLVYGAPGFSKDNNSIITRKEFQEGLKIFFPGVSEFGKESILFHYTDWVDDQRPENYREALGDVVGDYNFICPALEFTKKFSEWGNNAFFYYFEHRSSKLPWPEWMGVMHGYEIEFVFGLPLERRDNYTKAEEILSRSIVKRWANFAKYGNPNETQNNSTSWPVFKSTEQKYLTLNTESTRIMTKLRAQQCRFWTSFFPKVLEMTGNIDEAEWEWKAGFHRWNNYMMDWKNQFNDYTSKKESCVGL
modifications: plant-expressed
For B1, the Km amounted to 2.9 µM and the “kcat against (−)-cocaine” value was found to be 0.0433 s⁻¹.
